Experimental data published in patent US20250313620A1.

Tests used:
[1] = biological target: PD-1 on in vitro activated primary human T cells (human) (UniProt Q15116); test: flow cytometry, PD-1 staining of activated T cells treated with RV1 precomplexed with IL-15, 10 nM
[2] = biological target: PD-1 on in vitro activated primary human T cells (human) (UniProt Q15116); test: flow cytometry, PD-1 staining of activated T cells treated with RV1 precomplexed with IL-15, 1 nM
[3] = biological target: PD-1 on in vitro activated primary human T cells (human) (UniProt Q15116); test: flow cytometry, PD-1 staining of activated T cells, media only
[4] = biological target: PD-1 on in vitro activated primary human T cells (human) (UniProt Q15116); test: flow cytometry, PD-1 staining of activated T cells treated with RV2 precomplexed with IL-15, 10 nM
[5] = biological target: PD-1 on in vitro activated primary human T cells (human) (UniProt Q15116); test: flow cytometry, PD-1 staining of activated T cells treated with RV1 precomplexed with IL-15, 100 nM
[6] = biological target: PD-1 on in vitro activated primary human T cells (human) (UniProt Q15116); test: flow cytometry, PD-1 staining of Ki-67 positive activated T cells, average over the non-PD-1-binding treatments
[7] = biological target: PD-1 on in vitro activated primary human T cells (human) (UniProt Q15116); test: flow cytometry, PD-1 staining of activated T cells treated with IL-15Rα-Fc precomplexed with IL-15, 10 nM
[8] = biological target: PD-1 on in vitro activated primary human T cells (human) (UniProt Q15116); test: flow cytometry, PD-1 staining of activated T cells treated with RV2 precomplexed with IL-15, 1 nM
[9] = biological target: PD-1 on in vitro activated primary human T cells (human) (UniProt Q15116); test: flow cytometry, PD-1 staining of activated T cells treated with IL-15 10 nM
[10] = biological target: PD-1 on in vitro activated primary human T cells (human) (UniProt Q15116); test: flow cytometry, PD-1 staining of activated T cells treated with IL-15 1 nM
[11] = biological target: PD-1 on in vitro activated primary human T cells (human) (UniProt Q15116); test: flow cytometry, PD-1 staining of activated T cells treated with IL-15Rα-Fc precomplexed with IL-15, 100 nM
[12] = biological target: PD-1 on in vitro activated primary human T cells (human) (UniProt Q15116); test: flow cytometry, PD-1 staining of activated T cells treated with RV2 precomplexed with IL-15, 100 nM
[13] = biological target: PD-1 on in vitro activated primary human T cells (human) (UniProt Q15116); test: flow cytometry, PD-1 staining of activated T cells treated with IL-15Rα-Fc precomplexed with IL-15, 1 nM
[14] = biological target: PD-1 on in vitro activated primary human T cells (human) (UniProt Q15116); test: flow cytometry, PD-1 staining of activated T cells treated with IL-15 100 nM

Chain of PD-1 on in vitro activated primary human T cells (human) (Q15116 25-288): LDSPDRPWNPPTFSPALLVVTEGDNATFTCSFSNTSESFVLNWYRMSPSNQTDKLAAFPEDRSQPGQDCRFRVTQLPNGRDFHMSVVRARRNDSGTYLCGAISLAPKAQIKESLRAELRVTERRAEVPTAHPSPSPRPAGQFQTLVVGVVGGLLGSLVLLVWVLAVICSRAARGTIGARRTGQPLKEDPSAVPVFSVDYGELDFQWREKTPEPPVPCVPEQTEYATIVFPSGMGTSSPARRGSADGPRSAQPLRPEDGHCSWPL

- MFI of PD-1 in Ki-67 positive CD4+ T cells [1]: 4620 MFI
- MFI of PD-1 in Ki-67 positive CD8+ T cells [1]: 1890 MFI
- MFI of PD-1 in Ki-67 positive CD4+ T cells [2]: 4100 MFI
- MFI of PD-1 in Ki-67 positive CD8+ T cells [2]: 1870 MFI
- MFI of PD-1 in Ki-67 positive CD4+ T cells [3]: 4020 MFI
- MFI of PD-1 in Ki-67 positive CD8+ T cells [3]: 2250 MFI
- MFI of PD-1 in Ki-67 positive CD4+ T cells [4]: 5070 MFI
- MFI of PD-1 in Ki-67 positive CD8+ T cells [4]: 2020 MFI
- MFI of PD-1 in Ki-67 positive CD4+ T cells [5]: 4830 MFI
- MFI of PD-1 in Ki-67 positive CD8+ T cells [5]: 2370 MFI
- MFI of PD-1 staining, average, CD4+ cells [6]: 4830 MFI
- MFI of PD-1 staining, average, CD8+ cells [6]: 2190 MFI
- MFI of PD-1 in Ki-67 positive CD4+ T cells [7]: 4480 MFI
- MFI of PD-1 in Ki-67 positive CD8+ T cells [7]: 2120 MFI
- MFI of PD-1 in Ki-67 positive CD4+ T cells [8]: 4200 MFI
- MFI of PD-1 in Ki-67 positive CD8+ T cells [8]: 1920 MFI
- MFI of PD-1 in Ki-67 positive CD4+ T cells [9]: 6440 MFI
- MFI of PD-1 in Ki-67 positive CD8+ T cells [9]: 3190 MFI
- MFI of PD-1 in Ki-67 positive CD4+ T cells [10]: 4870 MFI
- MFI of PD-1 in Ki-67 positive CD8+ T cells [10]: 2050 MFI
- MFI of PD-1 in Ki-67 positive CD4+ T cells [11]: 4380 MFI
- MFI of PD-1 in Ki-67 positive CD8+ T cells [11]: 2110 MFI
- MFI of PD-1 in Ki-67 positive CD4+ T cells [12]: 5840 MFI
- MFI of PD-1 in Ki-67 positive CD8+ T cells [12]: 2820 MFI
- MFI of PD-1 in Ki-67 positive CD4+ T cells [13]: 4280 MFI
- MFI of PD-1 in Ki-67 positive CD8+ T cells [13]: 1690 MFI
- MFI of PD-1 in Ki-67 positive CD4+ T cells [14]: 6550 MFI
- MFI of PD-1 in Ki-67 positive CD8+ T cells [14]: 3220 MFI
B1: PD-1 detection antibody (clone EH12.2H7) (antibody, from another filing, V domains shown)
VH: QVQLQQSGAELAKPGASVQMSCKASGYSFTSSWIHWVKQRPGQGLEWIGYIYPSTGFTEYNQKFKDKATLTADKSSSTAYMQLSSLTSEDSAVYYCARWRDSSGYHAMDYWGQGTSVTVSS
VL: DIVLTQSPASLTVSLGQRATISCRASQSVSTSGYSYMHWYQQKPGQPPKLLIKFGSNLESGIPARFSGSGSGTDFTLNIHPVEEEDTATYYCQHSWEIPYTFGGGTKLEIK
